Source: patent US20210379068A1, “METHODS AND MATERIALS FOR TREATING NEUROPSYCHIATRIC DISORDERS” (Mayo Foundation for Medical Education and Research, priority 2018, published 2021)

Columns and labels:
Type in all cases: in vivo, mouse
obese C57BL/6 mice [1] = experiment: Elevated plus maze, HFD mice treated with Reparixin; conditions: HFD C57BL/6 mice; Reparixin 30 mg/kg s.c. twice per day for 2 weeks vs non-treated
Protocol: (§1) Reparixin L-lysine salt (MedChemExpress, #HY-15252) or L-Lysine hydrochloride (MedChemExpress, #HY-N0470) was dissolved in H2O was administered to obese C57BL/6 mice (fed for 2 months with high-fat diet) via subcutaneous injection (30 mg/kg) twice per day for 2 weeks. 2 hours after the last injection mice were tested in open field and elevated plus maze and afterwards dissected. A grey colored elevated plus maze apparatus was used. Two open arms (25×5 cm) and two closed arms (25×5 cm) were attached at right angles to a central platform (5×5 cm). The apparatus was set 40 cm above the floor. Mice were first acclimatized to the room for 1-1.5 hours. Mice were then placed individually on the central platform with their back to one of the open arms. Before the test, mice were habituated for 1 minute to the maze, then placed back in the home cage for 5 minutes. Mice were tested for 5 minutes during which they could freely explore the apparatus. Tracking software (Ethovision) recognizes mouse head, central body point, and the base of the tail. Anxiety was quantified by frequency of and time spent during head pokes/dips toward open arms. Higher anxiety is indicated by a lower frequency of movement into open arms and less time spent there.

obese C57BL/6 mice [2] = experiment: Open field test, HFD mice treated with Reparixin; conditions: HFD C57BL/6 mice; Reparixin 30 mg/kg s.c. twice per day for 2 weeks vs non-treated
Protocol: (§2) Reparixin L-lysine salt (MedChemExpress, #HY-15252) or L-Lysine hydrochloride (MedChemExpress, #HY-N0470) was dissolved in H2O was administered to obese C57BL/6 mice (fed for 2 months with high-fat diet) via subcutaneous injection (30 mg/kg) twice per day for 2 weeks. 2 hours after the last injection mice were tested in open field and elevated plus maze and afterwards dissected. Locomotor activity and anxiety-like behavior of mice were assessed in sound-insulated, rectangular activity chambers (Med Associates Inc., St Albans, Vt., USA: W×L×D=27 cm×27 cm×20 cm with continually running fans, infrared lasers, and sensors). Beam breaks were assessed in 2-minute bins over 30 minutes, converted automatically to current mouse location and distance travelled (cm), and recorded on a computer with Med-PC software Version 4.0. Before the test, mice were acclimatized to the room for 1-1.5 hours before being introduced into the chambers. Mice were habituated for 5 minutes in the Open Field chamber (without recording) then placed for another 5 minutes in the home cage. Afterwards, mice were introduced back to the chambers and all mouse movements were recorded for 30 minutes. Anxiety was quantified by the distance mice travelled in the central 25% of the chamber (zone 1) as a function of the total distance mice travelled and by frequencies of entries into zone 1.

[3] = Circulating Cxcl1 after Cxcl1 injection in lean C57BL/6 mice; conditions: Cxcl1 5 μg/kg i.p. daily for 7 days vs vehicle
Protocol: (§3) Recombinant CXCL1 (Peprotech, #250-11) or vehicle (PBS) was administered to lean C57BL/6 via i.p. injection (5 μg/kg in PBS) daily for 7 days. 2 hours after the last injection mice were tested in open field and elevated plus maze and afterwards dissected.
Serum levels of cytokines: Eotaxin, G-Csf, Tnf-α, Il-6, Ifn-γ, Il-1α, Il-1β, Il-17, Il-2, Kc/Cxcl1, Mcp-1, M-Csf, Mig, Mip-1α, and Mip-1β were determined using a Multiplexing LASER Bead Assay (Mouse Cytokine Array/Chemokine Array 31-Plex (MD31), Eve Technologies; Canada). Blood was withdrawn from mice by punctuation of the sub-mandibular vein at the day of dissection before an animal was sacrificed. 50 μL of serum were shipped to Eve Technologies on dry ice. Due to high variability of data an unbiased elimination of outliers was performed using ROUT's method (Graphpad 7 Prism). The same panel was used to detect SASP in MAF and 50 μl of media was shipped to Eve Technologies on dry ice.

lean C57BL/6 [4] = experiment: Open field test after Cxcl1 injection; conditions: Cxcl1 5 μg/kg i.p. daily for 7 days vs vehicle
Protocol: as §3
as §2, with “Locomotor” for “Reparixin L-lysine salt (MedChemExpress, #HY-15252) or L-Lysine hydrochloride (MedChemExpress, #HY-N0470) was dissolved in H2O was administered to obese C57BL/6 mice (fed for 2 months with high-fat diet) via subcutaneous injection (30 mg/kg) twice per day for 2 weeks. 2 hours after the last injection mice were tested in open field and elevated plus maze and afterwards dissected. Locomotor”

lean C57BL/6 [5] = experiment: Elevated plus maze after Cxcl1 injection; conditions: Cxcl1 5 μg/kg i.p. daily for 7 days vs vehicle
Protocol: as §3
as §1, with “A” for “Reparixin L-lysine salt (MedChemExpress, #HY-15252) or L-Lysine hydrochloride (MedChemExpress, #HY-N0470) was dissolved in H2O was administered to obese C57BL/6 mice (fed for 2 months with high-fat diet) via subcutaneous injection (30 mg/kg) twice per day for 2 weeks. 2 hours after the last injection mice were tested in open field and elevated plus maze and afterwards dissected. A”

Molecule	behavior in the EPM (obese C57BL/6 mice [1])	behavior in the open field box (obese C57BL/6 mice [2])	circulating Cxcl1 in blood plasma [3]	circulating Cxcl1 in blood plasma ([3]; listed as Cxcl-1)	anxiety-like behavior, open field (distance in the central area) (lean C57BL/6 [4])	anxiety-like behavior, open field (distance in the central area) (lean C57BL/6 [4]; listed as Cxcl-1)	anxiety-like behavior, EPM (head entries in the open arms) (lean C57BL/6 [5])	anxiety-like behavior, EPM (head entries in the open arms) (lean C57BL/6 [5]; listed as Cxcl-1)
CC(C)Cc1ccc([C@@H](C)C(=O)NS(C)(=O)=O)cc1 [Reparixin]	no difference	no difference	–	–	–	–	–	–
Cxcl1: Recombinant CXCL1 (Peprotech, #250-11) injected i.p. into lean mice (protein, UniProt P12850 25-96, looked up) Growth-regulated alpha protein: APIANELRCQCLQTMAGIHLKNIQSLKVLPSGPHCTQTEVIATLKNGREACLDPEAPLVQKIVQKMLKGVPK	–	–	increased levels	significantly increased	no difference	not different	no difference	not different
